The record followed here is PMC4880302.

Assay [1] concerns the target RPM-1 chimeric HMPV/RSV F protein (HMPV F with the grafted RSV site A/II palivizumab/motavizumab epitope) (human metapneumovirus, B2 strain). In words: SEC; gel filtration of complexes made of RPM-1 and Fab.
Assay [2] has the same target. As to the kind of experiment: SPR; BiOptix 404pi; F proteins captured on NiHC1000m chip through their C-terminal His tag to 120 RU; Fab injected at 300 to 0.14 nM, 100 ul/min; 10 mM HEPES pH 7.2, 150 mM NaCl, 0.005% Tween 20, 50 uM EDTA; simple Langmuir model. A general note: SPR reads the build-up and loss of mass on a sensor chip optically.

B1: motavizumab Fab (affinity-matured variant of palivizumab, anti-RSV F site II/A) (Fab, V domains shown)
VH: QVTLRESGPALVKPTQTLTLTCTFSGFSLSTAGMSVGWIRQPPGKALEWLADIWWDDKKHYNPSLKDRLTISKDTSKNQVVLKVTNMDPADTATYYCARDMIFNFYFDVWGQGTTVTVSS
VL: DIQMTQSPSTLSASVGDRVTITCSASSRVGYMHWYQQKPGKAPKLLIYDTSKLASGVPSRFSGSGSGTEFTLTISSLQPDDFATYYCFQGSGYPFTFGGGTKVEIK
B1: the stoichiometry N (Fabs per F trimer) in assay [1] was determined as 3. In assay [2], this molecule came in with an equilibrium dissociation constant (Kd) of 7.11 pM, a koff of 1.8e-05 s⁻¹, a kon of 2.41e+06 M⁻¹ s⁻¹ and a t1/2 of 10.9 h.

The term Kd denotes the free concentration of one partner at which half of the binding sites on the other are occupied at equilibrium, for simple one-to-one binding. Low readings indicate higher affinity, high ones lower affinity. Usually koff stands for the rate constant with which the complex falls apart. As a reminder, the kon is the rate constant with which the complex forms. Low values mean slower complex formation, high ones faster complex formation.
